Reference: publication PMC4901313

Biological target: Gp45, receptor binding protein (RBP) of Staphylococcus aureus phage ϕ11 (Staphylococcus aureus phage ϕ11)
Assay: crystal structure; native crystals, space group P1, 2.20 Å; grown in 0.1 M bicine/Trizma base pH 8.5, 10% w/v PEG 8000, 20% v/v ethylene glycol, 0.12 M monosaccharide-mix at 16 °C; three monomers related by non-crystallographic three-fold symmetry

“Gp45, receptor binding protein (RBP) of Staphylococcus aureus phage ϕ11 (natural protein)” was tested, and the stoichiometry N was 3.
